According to the supplement of paper PMC9170038:

System: K4 kissing-loop RNA reporter
Test: apparent KD of K4 kissing-loop reporter; higher = weaker reporter binding
Details: Eterna round: R107
Description: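 RNA-MaP round R107: designed RNA switches with theophylline, tryptophan, arginine or FMN aptamers are transcribed on-chip within common flanks. They are titrated with a labelled K4 kissing-loop RNA reporter in RNA-MaP buffer (100 mM Tris pH 7.5, 80 mM KCl, 4 mM MgCl2), without ligand or with the indicated ligand. Median apparent KD per design.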

[1] = input ligand: theophylline 20 uM
[2] = input ligand: tryptophan 2.4 mM
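Further: bound reporter read as fluorescence of individual clusters on recovered sequencing chips by microscopy, with normalized cluster intensities fitted with a binding model.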

Sequence | apparent KD of K4 kissing-loop reporter (input ligand: FMN 200 uM) | apparent KD of K4 kissing-loop reporter (input ligand: arginine 13.2 mM) | apparent KD of K4 kissing-loop reporter (input ligand: none) | apparent KD of K4 kissing-loop reporter [1] | apparent KD of K4 kissing-loop reporter [2]
UAUUUAAUUUUUAAUUUUUAAAUUGCUGAUACCAGAGCCAAUUGGCUCCCUUGGCAGCGGAUCGAGUGAUGUUCGUAUAAUUUAA [AK1 SS Theophylline A] | 30.5 nM | 66.4 nM | 35 nM | 62.2 nM | 33.6 nM
GGUCGGAGUGAUGUUCCGAGCUUCAGUCAUCGAGGACCGGUACGGCCGCCACUCGUCUACUAUGACGUAUCACCCUCCACGUGUU [theeternabot_sameState_KL_Trp_A_33] | 150 nM | 142 nM | 146 nM | 145 nM | 125 nM
CGCAGUGAUGUUGCUAUUAUUCUUGAUUAACGAGGACCGGUACGGCCGCCACUCGAUUUCUAUCUGAUCCAGUGUUUUGUUGAGU [#22 K4 Tryptophan A Exclusion] | 296 nM | 364 nM | 396 nM | 360 nM | 182 nM
UGUCAUUGGUCUGAUACCAGUUGAUGACGAAUACGUCAACUGGAGUGAUGUUCCUAAAACAACCCUUGGCAGCAGACCGAUGACU [TheoBS 1 #SwitchBubble #StaticStem] | 788 nM | 511 nM | 658 nM | 709 nM | 564 nM
CUGGUUCAGUGAUGUUGGAAGGUUUAGGUGAAGGAUAUAUUGCAUAAUAGAAGGUCACGGCCAUGCAAUUAUUAACGUAGCCUGU [theeternabot_exclusion_KL_FMN_A_3] | 279 nM | 114 nM | 172 nM | 126 nM | 158 nM
AAUAAGCGCGGAAGGAGCGCCGCCAGUGAUGUUGGGAGUUAGAUACCAGUGAUGUUGGGCCGGCAGGUAGGUCGCCGCAAAGCUU [Exclusion Arginine B Gf 14] | 208 nM | 86.5 nM | 165 nM | 137 nM | 138 nM
UCCUAGGCUCGAAAGAGCCUAGGUAAGACUCAGGAUAUCUGGAAACAGAGAAGGGAGCUACUAGUGAUGUUAGGAAUUCCCAUUU | 116 nM | 94.7 nM | 89 nM | 76.2 nM | 85.1 nM
UGUCAUUGGUCUGAUACCAGAAGAUAUUCUGGAGUGAUGUUCCAAGUACGACAAAGUCGCUUCCCUUGGCAGCAGACCGAUGACU [TheoBS 20 #SwitchBubble 13 #StaticStem] | 471 nM | 195 nM | 617 nM | 501 nM | 690 nM
GAAUGAAAUAUCUGGCCCUAUCAGAAUUGGAAGGAUAUGACGGUCAUCAGAAGGUCCAACUCGUAGUGAUGUUGCGGGUUUUAAA [theeternabot_exclusion_KL_FMN_A_21] | 91.2 nM | 46.3 nM | 41.4 nM | 42.8 nM | 36.2 nM
AGAUGACACCGAGGAUAUCCUAAUAUGGGUGAUGUUAGCGAUGUUGAAGGUGUAGUGAUGUUAUGCGGAGAAGGCGGUGUUGUUU [BDazzled - #21 - Exc. FMN B] | 104 nM | 103 nM | 216 nM | 139 nM | 132 nM
GAUUCAGUGAUGUUGGAAGGCGAGCGGGAUACCAGCCGAGACUCAGGCCCUUGGCAGCCCACAUAUCCCAGGUAGAUAGUCGCUC [Same State - Theophylline A (Freestyle 10)] | 343 nM | 266 nM | 325 nM | 383 nM | 265 nM
CUCGUGGGUUUGAGAGGGCUUGUGGGAAGAUAGGAUAUCUAGGGAGGGAGAAGGAUCUAUAGAAUAUAGUGAUGUUAUAUAUGGG [#05 K4 FMN A Same State] | 164 nM | 131 nM | 87.7 nM | 154 nM | 122 nM
GGUUCCUCAGUGAUGUUGAGGUGACCUCGGCAGGAUAUAGGCAUUACUAGAAGGGCCAAAAGAACCCUGUCCAGCGACACAGGGA [Zalatiat] | 159 nM | 238 nM | 305 nM | 250 nM | 232 nM
AAAAUAAACCAGUGAUGUUGGUGUCCAGAUACCAGCGAUAAUCAUCGCCCUUGGCAGCUGCGGACGUACAAAAUAAGUACGUCCU [MatMod 12 - Jieux - Same State - Theophylline A] | 665 nM | 475 nM | 707 nM | 399 nM | 567 nM
CGCAAUCGAACUGAUACCAGUCAUAAUGGCUGAGAAGCACGAGUGAUGUUCGUAACGAAUGACCCUUGGCAGCAGUUCGAUUGCG [Theo B SS t8] | 706 nM | 807 nM | 944 nM | 330 nM | 839 nM
UUCGAUCAGUGAUGUUGAUCAAUAGUCGAAGGAGCGCUAUAGAUAGCAGGUAGGUCGCGGCUACAGGGUGUUAAGACACCCAGAA [#13 K4 Arginine A Same State] | 534 nM | 450 nM | 453 nM | 477 nM | 488 nM
UUAUACAACUGAAGGAGCGCCAGUGAUGUUGGCGUGACGACUGCUUCCUUCGCCGAGUCCUGGCAGGUAGGUCGCAGUUGCUGAA [Oratgere] | 82.6 nM | 97.2 nM | 113 nM | 99 nM | 94.8 nM
CAGAUCACAGAGUGAUGUUCUGUGUCCGAAGGAGCGCGCUUCGGCGCAGGUAGGUCGCGGAUACAGUUGACGUACCAUCUAGACA [Arg A Ex t3c] | 446 nM | 383 nM | 583 nM | 485 nM | 507 nM
AGGUUUUGAUUAGGAUAUGCACUGAGGAGGAGAAUAUAGUGAUGUUAUAUAAGAGGAAGGAGAAGAGUAGAAGGGAUUGAGGUUU [SSFMNB.Q] | 156 nM | 285 nM | 191 nM | 197 nM | 190 nM
GUGCAGUGAUGUUGCACGAGGAAAGACGAUACCAGCCGUAAAUAAGGCCCUUGGCAGCGUAGGCUAGCAUAAGGUAUGCUAGUCC [Atesermace] | 117 nM | 109 nM | 108 nM | 95.5 nM | 100 nM
CCAUGAGGAUAAGAUGAUAUCAUAACAGAAGGAGCGAGUGAUAACUCAGGUAGGUCGCUGAAUUUAUCGAGUGAUGUUCGAUGAA [Same State Arginine A GF11] | 194 nM | 164 nM | 193 nM | 179 nM | 164 nM
